The record followed here is US20230070731A1, “COMPOSITIONS FOR SMALL MOLECULE CONTROL OF PRECISE BASE EDITING OF TARGET NUCLEIC ACIDS AND METHODS OF USE THEREOF” (THE TRUSTEES OF THE UNIVERSITY OF PENNSYLVANIA, priority 2020, published 2023).

Holding throughout (test): cell-based or functional assay
In test [1] the target is GFP11-AID*C (AID*-SPL2C) (human) (UniProt Q9GZX7).
In test [2] the target is AID′-seBE4max fragment containing FKBP12, the DNA deaminase C-terminus, nCas9, and two UGIs in series (human) (UniProt P62942).
The target of test [3] is evoA1-seBE4max fragment containing FKBP12, the DNA deaminase C-terminus, nCas9, and two UGIs in series (rat) (UniProt P62942).

“AID*N-optGFP1-10 (AID*-SPL2N) (from UniProt Q9GZX7 1-72)” gave an in vitro deaminase activity on a labeled oligonucleotide substrate (EC50 of enzyme) (fold reduced from intact AID*) in test [1] of 4.

In test [2], “AID′-seBE4max fragment containing the DNA deaminase N-terminus and FRB (from UniProt Q9GZX7 1-72; P42345 2021-2113)” gave a GFP^off cells by flow cytometry, targeting sgRNA, no rapamycin of 7% and a GFP^off cells by flow cytometry, targeting sgRNA, with rapamycin (200 nM) of 35%.

In test [3], “evoA1-seBE4max fragment containing the DNA deaminase N-terminus and FRB (from UniProt P38483 2-78; P42345 2021-2113)” returned a fold induction of base editing by rapamycin across seven genomic loci of 8.2 fold; an on-target base editing across seven genomic loci (deep sequencing), no rapamycin of 3%; an on-target base editing across seven genomic loci (deep sequencing), with rapamycin of 28%.
